From CN107081136A

Tests used:
[1] = biological target: Myc-GST融合蛋白 (Myc-GST fusion protein); assay: ELISA, Myc-GST coated at 5 μg/mL, HRP anti-His secondary antibody, heat-stability test at 70℃
[2] = biological target: Myc-GST融合蛋白 (Myc-GST fusion protein); assay: ELISA, Myc-GST coated at 5 μg/mL, HRP anti-His secondary antibody, heat-stability test at 80℃
[3] = biological target: Myc-GST融合蛋白 (Myc-GST fusion protein); assay: ELISA, Myc-GST coated at 5 μg/mL, HRP anti-His secondary antibody, heat-stability test at 90℃

B1: 抗c-Myc标签单域重链抗体 (anti-c-Myc tag single-domain heavy-chain antibody) (VHH, not shown: small tags and cut ends)
VHH: QLQLVESGGGLVQPGGSLRLSCTVSGFPLDNYAIGWLRQAPGKEREGVACISNRGGRTDYVDSVRGRFTISRDNAKKTVYLQMHNLKPEDTGIYYCVAPEMFRPCKLSSEDVRHWGHGTQVTVSS
OD450 [1]: 1.5 OD450 | OD450 [2]: 1.3 OD450 | OD450 [3]: 1.2 OD450
